Results: patent US20140342369A1

Tests used:
[1] = biological target: Neurabin-2, Spinophilin (Ppp1r9b) (mouse) (UniProt Q6R891); test: control pulldown (background; control not described), mass spectrometry of eluted proteins
Calnexin (Canx1) (mouse) [2] = biological target: Calnexin (Canx1) (mouse) (UniProt P35564); test: as above
[3] = biological target: Guanine nucleotide-binding protein G(i) subunit alpha-2 (Gnai2) (mouse) (UniProt P08752); test: as above
[4] = biological target: LYRIC (Mtdh, Metadherin) (mouse) (UniProt Q80WJ7); test: as above
Chain of UniProt Q80WJ7 (Q80WJ7 whole entry): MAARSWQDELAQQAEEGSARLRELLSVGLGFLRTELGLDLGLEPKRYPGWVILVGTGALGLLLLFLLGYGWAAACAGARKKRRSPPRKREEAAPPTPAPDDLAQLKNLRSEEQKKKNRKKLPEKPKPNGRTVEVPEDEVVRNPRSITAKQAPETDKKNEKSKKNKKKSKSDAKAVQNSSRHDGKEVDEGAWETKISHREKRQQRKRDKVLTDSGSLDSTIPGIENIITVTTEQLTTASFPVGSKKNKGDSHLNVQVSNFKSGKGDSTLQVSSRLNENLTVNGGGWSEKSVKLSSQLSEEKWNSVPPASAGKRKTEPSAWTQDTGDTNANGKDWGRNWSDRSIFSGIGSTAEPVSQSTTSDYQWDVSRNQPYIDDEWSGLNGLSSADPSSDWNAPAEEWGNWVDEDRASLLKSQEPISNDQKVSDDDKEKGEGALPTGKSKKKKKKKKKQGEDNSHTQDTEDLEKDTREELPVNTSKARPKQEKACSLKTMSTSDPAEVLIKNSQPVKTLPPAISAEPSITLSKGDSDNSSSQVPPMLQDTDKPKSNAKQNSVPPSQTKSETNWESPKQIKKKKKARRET

[5] = biological target: Neurabin-1 (Ppp1r9a) (mouse) (UniProt Q7TN74); test: as above
Chain of UniProt Q7TN74 (Q7TN74 entry or part of it): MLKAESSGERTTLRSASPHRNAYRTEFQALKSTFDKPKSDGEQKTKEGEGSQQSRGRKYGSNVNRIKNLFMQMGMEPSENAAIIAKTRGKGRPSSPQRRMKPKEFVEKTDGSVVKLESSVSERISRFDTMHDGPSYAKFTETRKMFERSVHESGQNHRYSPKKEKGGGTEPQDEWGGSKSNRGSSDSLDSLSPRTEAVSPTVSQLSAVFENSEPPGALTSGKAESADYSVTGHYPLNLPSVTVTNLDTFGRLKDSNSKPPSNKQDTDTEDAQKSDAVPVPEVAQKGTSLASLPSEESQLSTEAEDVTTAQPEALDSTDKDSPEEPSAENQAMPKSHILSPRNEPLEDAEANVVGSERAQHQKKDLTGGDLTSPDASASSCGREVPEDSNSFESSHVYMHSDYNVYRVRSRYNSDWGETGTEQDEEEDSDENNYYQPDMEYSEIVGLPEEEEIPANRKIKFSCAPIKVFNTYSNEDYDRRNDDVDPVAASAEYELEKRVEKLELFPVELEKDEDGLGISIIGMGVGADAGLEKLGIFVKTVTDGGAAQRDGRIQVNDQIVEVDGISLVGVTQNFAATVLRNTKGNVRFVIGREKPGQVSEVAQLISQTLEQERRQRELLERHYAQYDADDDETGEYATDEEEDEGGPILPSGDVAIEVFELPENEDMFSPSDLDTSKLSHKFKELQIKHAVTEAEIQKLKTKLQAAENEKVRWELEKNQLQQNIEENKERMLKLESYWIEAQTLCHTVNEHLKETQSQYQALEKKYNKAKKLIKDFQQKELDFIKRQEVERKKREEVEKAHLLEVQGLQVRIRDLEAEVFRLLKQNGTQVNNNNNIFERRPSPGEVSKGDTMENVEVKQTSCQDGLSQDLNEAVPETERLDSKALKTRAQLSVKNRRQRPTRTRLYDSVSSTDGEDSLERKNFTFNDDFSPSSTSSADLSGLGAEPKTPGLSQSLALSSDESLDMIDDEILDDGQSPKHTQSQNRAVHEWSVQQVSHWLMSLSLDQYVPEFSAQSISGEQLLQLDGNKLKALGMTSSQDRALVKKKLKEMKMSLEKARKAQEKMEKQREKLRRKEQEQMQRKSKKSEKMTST

[6] = biological target: Solute carrier family 2, facilitated glucose transporter member 3 (Slc2a3) (mouse) (UniProt P32037); test: as above
Chain of UniProt P32037 (P32037 whole entry): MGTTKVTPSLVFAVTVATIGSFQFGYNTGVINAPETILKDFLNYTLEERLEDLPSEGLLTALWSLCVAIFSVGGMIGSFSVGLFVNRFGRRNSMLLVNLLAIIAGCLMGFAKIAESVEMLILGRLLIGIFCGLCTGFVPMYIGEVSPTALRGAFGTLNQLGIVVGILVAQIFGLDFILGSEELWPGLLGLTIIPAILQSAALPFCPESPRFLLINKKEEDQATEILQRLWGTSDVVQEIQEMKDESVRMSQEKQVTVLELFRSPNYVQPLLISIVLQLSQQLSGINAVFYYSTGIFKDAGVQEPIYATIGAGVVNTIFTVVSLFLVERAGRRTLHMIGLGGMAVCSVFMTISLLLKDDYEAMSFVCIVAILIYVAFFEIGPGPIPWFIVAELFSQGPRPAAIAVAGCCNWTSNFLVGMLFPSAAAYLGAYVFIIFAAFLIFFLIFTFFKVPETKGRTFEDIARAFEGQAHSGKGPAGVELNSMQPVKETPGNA

[7] = biological target: Dolichyl-diphosphooligosaccharide--protein glycosyltransferase SU 1 (Rpn1) (mouse) (UniProt Q91YQ5); test: as above
Chain of UniProt Q91YQ5 (Q91YQ5 26-608 limits assumed): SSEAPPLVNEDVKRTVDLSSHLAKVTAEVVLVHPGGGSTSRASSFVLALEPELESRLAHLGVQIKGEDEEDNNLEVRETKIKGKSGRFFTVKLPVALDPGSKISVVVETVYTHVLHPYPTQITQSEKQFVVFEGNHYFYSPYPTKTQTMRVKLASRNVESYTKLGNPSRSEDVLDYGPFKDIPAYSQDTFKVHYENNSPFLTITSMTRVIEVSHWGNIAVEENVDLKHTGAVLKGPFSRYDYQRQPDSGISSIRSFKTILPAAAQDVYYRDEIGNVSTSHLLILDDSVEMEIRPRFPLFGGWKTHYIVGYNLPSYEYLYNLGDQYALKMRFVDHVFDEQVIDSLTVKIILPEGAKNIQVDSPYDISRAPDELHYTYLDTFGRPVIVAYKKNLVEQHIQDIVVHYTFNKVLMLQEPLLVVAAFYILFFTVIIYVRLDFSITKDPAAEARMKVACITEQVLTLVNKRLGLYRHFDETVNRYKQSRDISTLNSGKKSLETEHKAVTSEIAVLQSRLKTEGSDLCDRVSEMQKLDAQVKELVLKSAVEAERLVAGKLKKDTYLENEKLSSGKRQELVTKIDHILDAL

[8] = biological target: Neurabin-2, Spinophilin (Ppp1r9b) (mouse) (UniProt Q6R891); test: anti-HA pulldown of tagged Gpr107 from whole cell lysate, mass spectrometry of eluted proteins
Calnexin (Canx1) (mouse) [9] = biological target: Calnexin (Canx1) (mouse) (UniProt P35564); test: as above
[10] = biological target: Guanine nucleotide-binding protein G(i) subunit alpha-2 (Gnai2) (mouse) (UniProt P08752); test: as above
[11] = biological target: LYRIC (Mtdh, Metadherin) (mouse) (UniProt Q80WJ7); test: as above
[12] = biological target: Neurabin-1 (Ppp1r9a) (mouse) (UniProt Q7TN74); test: as above
[13] = biological target: Solute carrier family 2, facilitated glucose transporter member 3 (Slc2a3) (mouse) (UniProt P32037); test: as above
[14] = biological target: Dolichyl-diphosphooligosaccharide--protein glycosyltransferase SU 1 (Rpn1) (mouse) (UniProt Q91YQ5); test: as above

Chain of UniProt P35564 (P35564 21-591 limits assumed): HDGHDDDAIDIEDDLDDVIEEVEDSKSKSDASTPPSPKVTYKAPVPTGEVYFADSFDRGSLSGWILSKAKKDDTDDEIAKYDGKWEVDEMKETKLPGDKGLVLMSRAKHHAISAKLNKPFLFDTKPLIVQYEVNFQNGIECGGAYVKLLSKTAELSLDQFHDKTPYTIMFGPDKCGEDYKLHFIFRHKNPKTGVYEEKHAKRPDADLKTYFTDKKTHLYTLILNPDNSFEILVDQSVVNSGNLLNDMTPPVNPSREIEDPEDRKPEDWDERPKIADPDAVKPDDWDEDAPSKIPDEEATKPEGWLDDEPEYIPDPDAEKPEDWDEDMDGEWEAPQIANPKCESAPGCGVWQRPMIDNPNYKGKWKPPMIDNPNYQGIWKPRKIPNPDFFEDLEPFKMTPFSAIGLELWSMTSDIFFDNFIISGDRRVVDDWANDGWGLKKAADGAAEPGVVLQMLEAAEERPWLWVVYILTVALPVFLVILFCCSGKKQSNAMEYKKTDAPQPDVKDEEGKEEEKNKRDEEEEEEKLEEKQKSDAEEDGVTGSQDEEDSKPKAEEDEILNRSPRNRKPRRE
Chain of UniProt Q6R891 (Q6R891 whole entry): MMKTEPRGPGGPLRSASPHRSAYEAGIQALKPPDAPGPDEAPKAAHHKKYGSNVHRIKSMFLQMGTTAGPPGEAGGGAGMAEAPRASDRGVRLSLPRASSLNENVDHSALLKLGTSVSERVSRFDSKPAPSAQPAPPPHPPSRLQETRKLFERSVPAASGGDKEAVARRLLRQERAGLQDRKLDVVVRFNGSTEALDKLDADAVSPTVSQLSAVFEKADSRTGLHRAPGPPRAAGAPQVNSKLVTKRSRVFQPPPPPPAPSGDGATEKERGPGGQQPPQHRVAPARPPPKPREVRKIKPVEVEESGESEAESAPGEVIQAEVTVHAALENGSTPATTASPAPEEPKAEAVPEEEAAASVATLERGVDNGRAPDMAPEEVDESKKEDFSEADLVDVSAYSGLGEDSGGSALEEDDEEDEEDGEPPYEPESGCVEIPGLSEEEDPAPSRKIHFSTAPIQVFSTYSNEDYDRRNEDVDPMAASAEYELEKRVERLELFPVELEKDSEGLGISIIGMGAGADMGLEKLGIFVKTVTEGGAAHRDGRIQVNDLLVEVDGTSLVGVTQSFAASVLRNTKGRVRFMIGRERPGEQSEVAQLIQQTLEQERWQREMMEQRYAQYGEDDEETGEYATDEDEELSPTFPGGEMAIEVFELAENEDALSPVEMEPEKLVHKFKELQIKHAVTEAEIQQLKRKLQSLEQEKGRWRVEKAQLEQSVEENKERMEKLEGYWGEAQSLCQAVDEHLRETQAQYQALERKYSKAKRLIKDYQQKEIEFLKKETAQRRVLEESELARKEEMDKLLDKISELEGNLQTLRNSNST
Chain of UniProt P08752 (P08752 2-355 limits assumed): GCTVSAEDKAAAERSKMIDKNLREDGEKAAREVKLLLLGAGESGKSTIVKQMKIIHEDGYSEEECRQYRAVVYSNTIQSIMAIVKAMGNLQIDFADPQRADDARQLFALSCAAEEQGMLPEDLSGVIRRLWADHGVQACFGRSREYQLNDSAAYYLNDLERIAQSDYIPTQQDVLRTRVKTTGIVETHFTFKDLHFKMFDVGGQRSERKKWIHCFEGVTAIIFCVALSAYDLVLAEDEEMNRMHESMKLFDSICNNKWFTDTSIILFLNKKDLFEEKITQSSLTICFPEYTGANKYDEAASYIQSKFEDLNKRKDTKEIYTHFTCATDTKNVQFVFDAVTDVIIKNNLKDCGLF

Question: “C-terminally tagged (mCherry, Ha, myc) version of Gpr107 (G protein coupled receptor 107) (from UniProt Q8BUV8 34-551)” was tested. Which peptides control [1] did it give?
Answer: Its peptides control is 8 peptides.

Question: And the peptides control (Calnexin (Canx1) (mouse) [2])?
Answer: The peptides control was 3 peptides.

Question: And the peptides control [3]?
Answer: The peptides control was 0 peptides.

Question: What about the peptides control [4] of the same substance?
Answer: Its peptides control is 0 peptides.

Question: And the peptides control [5]?
Answer: The peptides control was 0 peptides.

Question: And the peptides control [6]?
Answer: Its peptides control is 0 peptides.

Question: And the peptides control [7]?
Answer: The peptides control was 3 peptides.

Question: And the peptides sample [8]?
Answer: The peptides sample was 136 peptides.

Question: What about the peptides sample (Calnexin (Canx1) (mouse) [9]) of the same substance?
Answer: Its peptides sample is 7 peptides.

Question: What about the peptides sample [10] of the same substance?
Answer: The peptides sample was 19 peptides.

Question: What about the peptides sample [11] of the same substance?
Answer: Its peptides sample is 46 peptides.

Question: What about the peptides sample [12] of the same substance?
Answer: Its peptides sample is 13 peptides.

Question: What about the peptides sample [13] of the same substance?
Answer: Its peptides sample is 5 peptides.

Question: And the peptides sample [14]?
Answer: Its peptides sample is 8 peptides.
